The results in this text go back to patent WO2018065552A1 (dated 2018).

The target of this experiment is T1, human CD39 endogenously expressed on Ramos human lymphoma cells (human, UniProt P49961 1-510).
T1 construct: also called NTPDase1; ENTPD1
T1 sequence: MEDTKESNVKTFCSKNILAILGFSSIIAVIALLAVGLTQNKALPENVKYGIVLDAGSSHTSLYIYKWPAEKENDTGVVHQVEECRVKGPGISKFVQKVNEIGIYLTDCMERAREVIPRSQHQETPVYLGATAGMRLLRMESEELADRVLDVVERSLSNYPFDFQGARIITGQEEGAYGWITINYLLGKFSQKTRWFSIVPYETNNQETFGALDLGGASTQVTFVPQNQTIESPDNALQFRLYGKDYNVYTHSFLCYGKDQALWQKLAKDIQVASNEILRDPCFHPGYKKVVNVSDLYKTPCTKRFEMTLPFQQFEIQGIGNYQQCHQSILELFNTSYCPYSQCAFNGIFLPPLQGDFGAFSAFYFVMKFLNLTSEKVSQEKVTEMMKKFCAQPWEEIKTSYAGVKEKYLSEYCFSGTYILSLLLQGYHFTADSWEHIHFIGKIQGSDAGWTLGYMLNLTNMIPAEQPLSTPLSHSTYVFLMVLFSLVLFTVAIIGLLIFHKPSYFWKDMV
As to the kind of experiment: flow cytometry, antibody titration on Ramos cells endogenously expressing CD39.

Numbering of substitutions follows the chain as printed. Names may count otherwise.

B1: HH3/L0 (antibody, human IgG1, V domains shown)
VH: QVQLVQSGSELKKPGASVKVSCKASGYTFTHYGMNWVRQAPGQGLKWMGWINTYTGEPTYAQDFKGRFVFSLDTSVSTAYLQISSLKAEDTAVYYCARRRYEGNSVFYYFDYWGQGTTVTVSS
VL: DIQMTQSPSSLSASVGDRVTITCRASENIYSYFSWYQQKPGKAPKLLIYTAKTLAEGVPSRFSGSGSGTDFTLTISSLQPEDFATYYCQHHYVTPYTFGGGTKVEIK
notes: Human IgG1 N297Q, huCk; also called mAb38
Turning to B1, the binding result was “binds”.

B2: HH4/L0 (antibody, human IgG1, V domains shown)
VH: B1 VH with Y54E, Q62D, S105Y
VL: B1 VL
notes: Human IgG1 N297Q, huCk; HH4 has a glutamic acid substitution at Kabat residue 53; its row is lacking in this copy; If the inference holds, this is mAb39
As to B2, the binding result is “no binding”.
